# Experiments:
# AncSZ = assay: phosphorylation enrichment, bacterial display (enrichment ratio); higher = better substrate or ligand; peptides without Tyr show the background
# EPHB1 = EPHB1 (UniProt P54762); assay: as above
# EPHB2 = EPHB2 (UniProt P29323); assay: as above
# FGFR1 = FGFR1 (UniProt P11362); assay: as above
# FGFR3 = FGFR3 (UniProt P22607); assay: as above
# Fer (mouse) = assay: as above
# Fes = Fes (UniProt P07332); assay: as above
# Fyn = Fyn (UniProt P06241); assay: as above
# Hck = Hck (UniProt P08631); assay: as above
# Jak2 = Jak2 (UniProt O60674); assay: as above
# MERTK = MERTK (UniProt Q12866); assay: as above
# c-Abl (mouse) = assay: as above
# c-Src = assay: as above
# Grb2 SH2 = Grb2 SH2 (UniProt P62993); assay: SH2 binding enrichment of the phosphorylated peptide, bacterial display (enrichment ratio); higher = better substrate or ligand; peptides without Tyr show the background
# SHP2-C SH2 = assay: as above
# c-Src SH2 = assay: as above
# 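Wherever SH2 binding enrichment of the phosphorylated peptide, bacterial display is given: peptide library displayed on the E. coli surface as eCPX fusions, selected cells deep-sequenced, score is each peptide's frequency after selection divided by its frequency in the input.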
# 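Wherever phosphorylation enrichment, bacterial display is given: 11-residue human phosphosite peptides and single-mutation variants displayed on the E. coli surface, counted by deep sequencing, each peptide's frequency after selection divided by its frequency in the unselected input library; frequency after pTyr selection over input frequency; kinase dosed for 20-30% of maximal phosphorylation in three min.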
# MERTK, sequence (Q12866 whole entry, looked up): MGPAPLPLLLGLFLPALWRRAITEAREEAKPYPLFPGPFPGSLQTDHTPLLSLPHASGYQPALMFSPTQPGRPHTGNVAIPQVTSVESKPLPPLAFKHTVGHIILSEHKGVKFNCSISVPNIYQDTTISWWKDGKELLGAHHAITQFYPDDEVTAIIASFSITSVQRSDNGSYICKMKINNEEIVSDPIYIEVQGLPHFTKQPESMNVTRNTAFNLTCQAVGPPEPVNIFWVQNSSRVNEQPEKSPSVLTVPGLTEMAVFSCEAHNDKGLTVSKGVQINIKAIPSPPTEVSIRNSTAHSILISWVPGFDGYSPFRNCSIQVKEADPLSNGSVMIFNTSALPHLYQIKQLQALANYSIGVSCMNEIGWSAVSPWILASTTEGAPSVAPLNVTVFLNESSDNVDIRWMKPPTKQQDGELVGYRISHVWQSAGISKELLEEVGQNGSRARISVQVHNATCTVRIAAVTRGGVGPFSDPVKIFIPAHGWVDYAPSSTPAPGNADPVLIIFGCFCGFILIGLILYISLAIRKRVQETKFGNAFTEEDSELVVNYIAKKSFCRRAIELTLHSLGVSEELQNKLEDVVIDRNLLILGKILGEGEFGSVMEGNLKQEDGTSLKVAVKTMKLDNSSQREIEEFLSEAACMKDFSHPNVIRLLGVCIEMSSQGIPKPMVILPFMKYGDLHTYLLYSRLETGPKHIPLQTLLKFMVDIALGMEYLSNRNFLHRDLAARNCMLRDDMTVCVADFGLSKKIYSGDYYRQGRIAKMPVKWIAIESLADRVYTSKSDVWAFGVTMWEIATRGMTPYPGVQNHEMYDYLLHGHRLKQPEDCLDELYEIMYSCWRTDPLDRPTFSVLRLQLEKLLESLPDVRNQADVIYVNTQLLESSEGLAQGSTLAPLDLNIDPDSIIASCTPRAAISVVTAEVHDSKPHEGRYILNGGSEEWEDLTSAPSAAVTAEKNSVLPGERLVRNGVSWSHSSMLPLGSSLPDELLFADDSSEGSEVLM
# Grb2 SH2, sequence (P62993 whole entry, looked up): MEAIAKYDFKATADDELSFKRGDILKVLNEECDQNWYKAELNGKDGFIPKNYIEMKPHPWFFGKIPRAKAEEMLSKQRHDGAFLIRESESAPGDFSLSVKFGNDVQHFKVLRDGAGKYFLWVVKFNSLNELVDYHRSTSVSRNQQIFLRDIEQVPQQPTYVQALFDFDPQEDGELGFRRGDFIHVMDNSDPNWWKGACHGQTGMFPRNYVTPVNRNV
# Hck, sequence (P08631 whole entry, looked up): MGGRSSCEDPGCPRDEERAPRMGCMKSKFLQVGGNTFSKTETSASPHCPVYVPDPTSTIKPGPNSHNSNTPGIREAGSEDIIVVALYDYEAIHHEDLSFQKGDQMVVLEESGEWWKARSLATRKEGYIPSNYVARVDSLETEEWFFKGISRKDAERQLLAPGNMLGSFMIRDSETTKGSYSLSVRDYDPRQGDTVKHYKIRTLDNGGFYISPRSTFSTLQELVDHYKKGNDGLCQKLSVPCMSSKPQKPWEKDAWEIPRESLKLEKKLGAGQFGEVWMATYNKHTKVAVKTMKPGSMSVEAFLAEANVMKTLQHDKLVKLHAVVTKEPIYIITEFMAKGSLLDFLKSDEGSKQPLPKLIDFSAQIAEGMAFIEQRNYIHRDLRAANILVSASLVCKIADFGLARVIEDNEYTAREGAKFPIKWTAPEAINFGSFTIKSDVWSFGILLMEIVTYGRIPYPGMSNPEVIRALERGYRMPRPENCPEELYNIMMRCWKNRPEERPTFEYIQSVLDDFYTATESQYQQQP
# Fes, sequence (P07332 whole entry, looked up): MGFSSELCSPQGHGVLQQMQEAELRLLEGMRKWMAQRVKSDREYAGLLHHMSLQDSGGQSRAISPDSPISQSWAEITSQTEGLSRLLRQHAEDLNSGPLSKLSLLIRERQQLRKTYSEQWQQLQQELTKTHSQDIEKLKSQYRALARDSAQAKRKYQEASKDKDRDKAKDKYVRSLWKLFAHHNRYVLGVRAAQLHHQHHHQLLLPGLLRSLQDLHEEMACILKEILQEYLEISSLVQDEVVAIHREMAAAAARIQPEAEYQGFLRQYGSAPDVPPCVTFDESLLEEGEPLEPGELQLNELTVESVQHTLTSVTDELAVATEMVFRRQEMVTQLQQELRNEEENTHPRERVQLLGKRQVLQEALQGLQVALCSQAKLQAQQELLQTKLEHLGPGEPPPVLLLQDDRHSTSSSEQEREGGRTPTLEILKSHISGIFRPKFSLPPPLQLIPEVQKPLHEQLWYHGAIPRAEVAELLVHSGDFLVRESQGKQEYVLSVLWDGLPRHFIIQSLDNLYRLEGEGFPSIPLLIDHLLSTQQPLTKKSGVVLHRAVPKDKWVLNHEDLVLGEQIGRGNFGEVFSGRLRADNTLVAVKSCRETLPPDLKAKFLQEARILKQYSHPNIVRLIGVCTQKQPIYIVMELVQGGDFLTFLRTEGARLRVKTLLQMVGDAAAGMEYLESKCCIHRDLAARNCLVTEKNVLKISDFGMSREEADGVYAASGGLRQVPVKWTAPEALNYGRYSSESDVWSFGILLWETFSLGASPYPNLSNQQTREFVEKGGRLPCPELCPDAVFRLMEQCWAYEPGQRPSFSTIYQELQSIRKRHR
# EPHB2, sequence (P29323 whole entry, looked up): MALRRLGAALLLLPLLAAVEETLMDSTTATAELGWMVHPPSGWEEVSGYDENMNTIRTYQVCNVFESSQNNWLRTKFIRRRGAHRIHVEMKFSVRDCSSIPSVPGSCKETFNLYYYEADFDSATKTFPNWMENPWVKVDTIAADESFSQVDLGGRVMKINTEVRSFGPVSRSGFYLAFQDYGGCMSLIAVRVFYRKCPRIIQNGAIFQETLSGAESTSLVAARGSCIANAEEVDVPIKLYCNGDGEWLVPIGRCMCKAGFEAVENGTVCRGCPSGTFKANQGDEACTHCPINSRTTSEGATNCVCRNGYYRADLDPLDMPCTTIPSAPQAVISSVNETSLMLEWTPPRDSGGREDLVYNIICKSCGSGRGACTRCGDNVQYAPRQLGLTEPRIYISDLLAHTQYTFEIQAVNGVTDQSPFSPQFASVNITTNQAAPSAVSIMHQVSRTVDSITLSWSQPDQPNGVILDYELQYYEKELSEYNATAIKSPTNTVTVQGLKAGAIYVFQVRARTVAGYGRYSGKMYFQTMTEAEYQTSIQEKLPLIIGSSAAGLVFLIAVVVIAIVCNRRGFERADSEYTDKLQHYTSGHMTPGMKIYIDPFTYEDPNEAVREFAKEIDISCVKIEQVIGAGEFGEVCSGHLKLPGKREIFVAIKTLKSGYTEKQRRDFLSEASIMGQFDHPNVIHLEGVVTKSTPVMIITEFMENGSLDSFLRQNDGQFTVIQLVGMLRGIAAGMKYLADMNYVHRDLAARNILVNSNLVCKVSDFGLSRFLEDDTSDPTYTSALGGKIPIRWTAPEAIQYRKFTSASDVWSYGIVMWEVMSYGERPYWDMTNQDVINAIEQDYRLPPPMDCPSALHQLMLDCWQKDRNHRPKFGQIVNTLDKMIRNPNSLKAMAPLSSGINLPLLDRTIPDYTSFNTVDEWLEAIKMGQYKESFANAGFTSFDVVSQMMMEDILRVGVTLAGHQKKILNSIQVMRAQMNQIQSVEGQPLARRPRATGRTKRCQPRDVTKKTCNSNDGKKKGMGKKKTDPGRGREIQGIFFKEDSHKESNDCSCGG
# Jak2, sequence (O60674 whole entry, looked up): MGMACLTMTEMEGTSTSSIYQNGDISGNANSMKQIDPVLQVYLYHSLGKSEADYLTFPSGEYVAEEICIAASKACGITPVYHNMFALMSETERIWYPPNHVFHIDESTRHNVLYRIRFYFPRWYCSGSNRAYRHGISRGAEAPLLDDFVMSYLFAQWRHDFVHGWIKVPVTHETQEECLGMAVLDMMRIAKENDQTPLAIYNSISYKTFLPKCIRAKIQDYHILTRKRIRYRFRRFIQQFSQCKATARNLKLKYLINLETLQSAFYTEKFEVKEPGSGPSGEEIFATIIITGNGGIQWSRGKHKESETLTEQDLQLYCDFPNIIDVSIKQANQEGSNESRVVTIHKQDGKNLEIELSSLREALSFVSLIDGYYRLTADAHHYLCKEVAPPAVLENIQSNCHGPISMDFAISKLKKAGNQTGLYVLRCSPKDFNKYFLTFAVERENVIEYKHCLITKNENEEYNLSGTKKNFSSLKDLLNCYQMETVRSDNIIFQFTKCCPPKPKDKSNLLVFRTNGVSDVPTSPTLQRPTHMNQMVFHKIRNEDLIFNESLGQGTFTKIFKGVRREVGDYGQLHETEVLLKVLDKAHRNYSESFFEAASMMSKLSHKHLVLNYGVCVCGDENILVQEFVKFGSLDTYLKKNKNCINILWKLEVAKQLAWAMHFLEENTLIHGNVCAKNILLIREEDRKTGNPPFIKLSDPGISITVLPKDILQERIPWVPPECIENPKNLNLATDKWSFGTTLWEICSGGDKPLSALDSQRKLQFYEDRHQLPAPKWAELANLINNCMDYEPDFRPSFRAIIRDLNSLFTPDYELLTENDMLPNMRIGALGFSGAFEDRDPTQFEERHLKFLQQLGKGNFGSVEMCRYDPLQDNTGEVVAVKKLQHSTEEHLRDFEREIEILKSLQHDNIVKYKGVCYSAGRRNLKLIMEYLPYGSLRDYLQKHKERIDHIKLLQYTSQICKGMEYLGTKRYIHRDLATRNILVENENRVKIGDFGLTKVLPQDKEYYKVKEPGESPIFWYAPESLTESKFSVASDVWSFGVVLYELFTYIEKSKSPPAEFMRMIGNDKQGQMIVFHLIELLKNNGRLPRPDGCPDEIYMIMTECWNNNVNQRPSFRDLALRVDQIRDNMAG
Sequence,phosphorylation enrichment (AncSZ),phosphorylation enrichment (EPHB1),phosphorylation enrichment (EPHB2),phosphorylation enrichment (FGFR1),phosphorylation enrichment (FGFR3),phosphorylation enrichment (Fer (mouse)),phosphorylation enrichment (Fes),phosphorylation enrichment (Fyn),phosphorylation enrichment (Hck),phosphorylation enrichment (Jak2),phosphorylation enrichment (MERTK),phosphorylation enrichment (c-Abl (mouse)),phosphorylation enrichment (c-Src),SH2 binding enrichment (Grb2 SH2),SH2 binding enrichment (SHP2-C SH2),SH2 binding enrichment (c-Src SH2)
GVPLGYPIKAS [ELN_Y206_P211S],0.438,0.327,0.333,0.407,0.412,0.376,0.576,0.368,0.404,0.477,0.366,0.714,0.381,0.783,0.581,0.423
GYAGKYIAMVM [CYP19A1_Y441_C437Y],0.752,0.525,0.483,0.521,0.584,0.545,0.904,0.489,0.526,0.644,0.479,0.862,0.381,0.883,0.563,0.732
HDRNTYEKYLE [TF_Y666_G671E],1.07,0.505,0.595,0.584,0.748,0.715,1.21,0.856,0.736,1.24,0.506,1.08,0.995,0.681,1.14,1.62
HESEIYCKVCF [CSRP3_Y57_YF],1.52,0.854,1.42,0.821,0.89,2.49,1.11,5.35,7.63,1.21,3.7,1.17,6.41,1.44,1.35,1.54
HFMELYDLNRD [BBS2_Y648_R643H_YF],1.1,0.625,0.594,0.497,0.723,0.784,1.18,1.38,1.48,1.28,0.563,0.943,4.64,1.25,1.51,0.654
HFPDVYAWEQL [ALX3_Y181_R183W_YF],1.2,0.922,0.935,0.616,0.674,11.3,1.46,7.03,3.06,0.893,2.25,0.632,5.25,1.23,0.662,0.809
HHIDYYKKTTN [FGFR1_Y654],0.577,0.47,0.721,0.568,0.803,0.646,0.633,0.711,0.481,0.592,0.663,0.569,0.481,0.699,0.535,0.443
HHTNEYEFDEL [TGM1_Y134_D132N_YF],1.56,0.691,1.01,0.702,0.832,0.558,1.42,1.13,0.719,0.884,0.607,0.624,0.939,0.678,0.783,0.828
HIILLYIFLKN [STXBP1_Y411_R406H],1.27,0.906,0.567,0.755,1.08,0.495,1.6,0.447,0.501,1.16,0.657,1.2,0.568,1.86,1.72,1.51
HILQLYRCREE [ALPK3_Y342_T338I],0.945,0.924,0.705,0.763,0.871,0.556,1.05,0.65,0.553,0.709,0.515,0.423,0.577,0.729,0.748,0.546
HKETGYVVERP [BCLAF1_Y466_L461H],0.746,0.475,0.502,0.582,0.656,0.439,1.36,0.497,0.448,1.14,0.445,1.28,0.652,0.747,0.401,0.394
HKLSSYEYDFE [BTK_Y40_Y39S],1.84,0.822,0.789,0.952,1.04,1.03,1.51,0.72,0.952,1.38,0.911,0.966,1.43,0.69,0.411,1.33
HLATEYVFSDF [PANX1_Y10_Q5H],2.12,0.808,1.04,1.67,1.23,0.788,1.39,0.935,0.661,1.17,0.639,0.863,1.28,0.755,0.884,0.576
HLITAYRAHGF [PDHA1_Y118],0.648,0.572,0.389,0.701,0.609,0.489,0.74,0.551,0.536,0.408,0.369,0.309,0.344,0.981,0.642,0.422
HLSPEYKQNEI [GJB1_Y243_R238H],0.966,0.68,1.33,0.857,0.728,0.418,1.07,0.594,0.614,0.874,0.676,0.716,0.532,0.905,0.683,0.611
HNELYYEAAEH [VANGL1_Y345_E347A],1.56,1.12,1.06,5.49,4.38,7.27,1.44,1.52,2.1,1.16,5.06,0.854,1.79,0.954,0.606,0.777
